Tests used:
[1] = target: T1, rTr1 (Ehrlichia chaffeensis) (UniProt Q2GF81); assay: DNase I footprinting; settings: EMSA/footprint: 10 mM Tris-HCl pH 7.5, 100 mM NaCl, 1 mM DTT, 10% glycerol, 25 C, SPR: 10 mM Tris-HCl pH 7.5, 100 mM NaCl, 0.05% Tween 20, 25 C
T1 sequence: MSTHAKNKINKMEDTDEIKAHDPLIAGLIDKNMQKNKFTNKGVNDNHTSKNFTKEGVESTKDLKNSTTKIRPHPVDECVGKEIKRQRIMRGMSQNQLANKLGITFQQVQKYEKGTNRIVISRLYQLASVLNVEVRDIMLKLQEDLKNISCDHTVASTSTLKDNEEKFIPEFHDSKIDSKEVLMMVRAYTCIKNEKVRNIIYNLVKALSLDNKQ

[2] = target: T1, rTr1 (Ehrlichia chaffeensis); assay: EMSA; settings: EMSA/footprint: 10 mM Tris-HCl pH 7.5, 100 mM NaCl, 1 mM DTT, 10% glycerol, 25 C, SPR: 10 mM Tris-HCl pH 7.5, 100 mM NaCl, 0.05% Tween 20, 25 C
[3] = target: T2, rEcxR (Ehrlichia chaffeensis) (UniProt Q2GG40); assay: EMSA; settings: EMSA/footprint: 10 mM Tris-HCl pH 7.5, 100 mM NaCl, 1 mM DTT, 10% glycerol, 25 C, SPR: 10 mM Tris-HCl pH 7.5, 100 mM NaCl, 0.05% Tween 20, 25 C
T2 sequence: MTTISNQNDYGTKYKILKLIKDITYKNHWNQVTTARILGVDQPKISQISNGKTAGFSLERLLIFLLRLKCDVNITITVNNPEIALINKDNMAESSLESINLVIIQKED

rTr1 [4] = target: T3, rTr1 (Ehrlichia chaffeensis, UniProt Q2GF81 1-213); assay: SPR; EMSA/footprint: 10 mM Tris-HCl pH 7.5, 100 mM NaCl, 1 mM DTT, 10% glycerol, 25 C; SPR: 10 mM Tris-HCl pH 7.5, 100 mM NaCl, 1 mM DTT, 0.05% Tween 20, 25 C; settings: protein: recombinant, tags: N-terminal His (pET-33b), chain copies: 2
T3 sequence: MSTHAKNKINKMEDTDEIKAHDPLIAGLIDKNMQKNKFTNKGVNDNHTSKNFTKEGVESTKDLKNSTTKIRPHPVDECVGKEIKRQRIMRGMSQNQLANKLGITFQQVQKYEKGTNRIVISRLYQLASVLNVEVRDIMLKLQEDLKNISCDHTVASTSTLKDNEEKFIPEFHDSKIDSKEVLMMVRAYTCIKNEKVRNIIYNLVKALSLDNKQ

rEcxR = target: T4, rEcxR (Ehrlichia chaffeensis, UniProt Q2GG40 1-108); assay: as above; settings: protein: recombinant, tags: C-terminal His (pET-29a), chain copies: 2, none in plain EMSA
T4 sequence: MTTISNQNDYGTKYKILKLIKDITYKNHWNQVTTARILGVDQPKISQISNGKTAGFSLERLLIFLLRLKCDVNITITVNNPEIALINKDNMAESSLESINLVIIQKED

rTr1 [5] = target: T3, rTr1; assay: competition; 50-fold unlabelled vs biotinylated region I, 1 uM rTr1; EMSA/footprint: 10 mM Tris-HCl pH 7.5, 100 mM NaCl, 1 mM DTT, 10% glycerol, 25 C; SPR: 10 mM Tris-HCl pH 7.5, 100 mM NaCl, 1 mM DTT, 0.05% Tween 20, 25 C; settings: protein: recombinant; tags: N-terminal His (pET-33b); chain copies: 2; blunt
rTr1 [6] = target: T3, rTr1; assay: EMSA; 1.8 uM rTr1; EMSA/footprint: 10 mM Tris-HCl pH 7.5, 100 mM NaCl, 1 mM DTT, 10% glycerol, 25 C; SPR: 10 mM Tris-HCl pH 7.5, 100 mM NaCl, 1 mM DTT, 0.05% Tween 20, 25 C; settings: protein: recombinant; tags: N-terminal His (pET-33b); chain copies: 2; blunt
rTr1 [7] = target: T3, rTr1; assay: competition; 50-fold unlabelled vs biotinylated region II, 1 uM rTr1; EMSA/footprint: 10 mM Tris-HCl pH 7.5, 100 mM NaCl, 1 mM DTT, 10% glycerol, 25 C; SPR: 10 mM Tris-HCl pH 7.5, 100 mM NaCl, 1 mM DTT, 0.05% Tween 20, 25 C; settings: protein: recombinant; tags: N-terminal His (pET-33b); chain copies: 2; blunt

Q: Which binding [1] does the source give for “ATGATATCAATGCACTTGTTATGAAAACTTTTTTGTAATTCATATATAACCTAATAGTGACAAATAAATTAACAATAGTAGAAGTGTCATATAAAAGCAAGTCAGAATATAAATTTTTGTATAAAATATCGGTAACTTTTGTAAGGAAAATTTAATATATTACGTCAGGTAAGTAATAGCAAAAAAACTGGTTAAGTATAGTATCATGTGTAAAGGTGAGAAAAACAGCACTTATA (double strand) [p28 promoter footprint fragment]” here?
A: binds

Q: Which results are given for “CCTATAACAAAGCAACCTATGTAAGATAAATCATGCATAAAGTGAATGCAATAGTTATTTAATGGATATATTCTATCTAGTTTGCTGGAATAGTATACTAATTATATAATATACAGAAATAACATATTATGCTTTATGAAATATAAGATAAAATTTATTTACTTTTTAGCTTGATTGGATCAATAATTTATATTAAACATGAAAGTCAGTTTGTCCGGGT (double strand) [tr1 promoter EMSA probe]”?
A: binding [2]: binds; binding [3]: binds

Q: Which binding [1] does the source give for “CCTATAACAAAGCAACCTATGTAAGATAAATCATGCATAAAGTGAATGCAATAGTTATTTAATGGATATATTCTATCTAGTTTGCTGGAATAGTATACTAATTATATAATATACAGAAATAACATATTATGCTTTATGAAATATAAGATAAAATTTATTTACTTTTTAGCTTGATTGGATCAATAATTTATATTAAACATGAAAGTCAGTTTGTCCGGGT (double strand) [tr1 promoter footprint fragment]” here?
A: binds

Q: For “GAATTTGTGATTTGAAATAACAAGACTTAAATGTCGAATTTAGCTTCTGTCCTAGTGGATAAGTACTTTAGCAAGTGGTAAAAGCAAGTCTACTCATATTTTTATTAATTAAGTAGTAAAGTTAACTATAGATTTTATTAAAATTTTTATTCTAATCACTTTAAATATCAATTACTTTTGTTGTAAATTTGAAAGAAATTTTATATTCTAGACTTGCTTTTCTTTATTTCTTTCATTATTCTTAAATTTTTATTATCTTTTATAAAAGGTTTATTAAC (double strand) [omp-1B promoter EMSA probe]”, which binding [2] is on record?
A: binds

Q: What about the binding [3] of the same molecule?
A: binds

Q: For “GAATTTGTGATTTGAAATAACAAGACTTAAATGTCGAATTTAGCTTCTGTCCTAGTGGATAAGTACTTTAGCAAGTGGTAAAAGCAAGTCTACTCATATTTTTATTAATTAAGTAGTAAAGTTAACTATAGATTTTATTAAAATTTTTATTCTAATCACTTTAAATATCAATTACTTTTGTTGTAAATTTGAAAGAAATTTTATATTCTAGACTTGCTTTTCTTTATTTCTTTCATTATTCTTAAATTTTTATTATCTTTTATAAAAGGTTTATTAAC (double strand) [omp-1B promoter footprint fragment]”, which binding [1] is on record?
A: binds

Q: Which binding [1] does the source give for “GTGATAGGGAATGAATTCAGAGATATTCCTGCTATGATACCCAGTACCTCAACTCTCACAGGTAATCACTTTACTATAGTAACACTAAGTGTATGCCACTTTGGAGTGGAACTTGGAGGAAGGTTTAACTTTTAATTTTATTATTGCCACATGTTAAAAATAATCTAAACTTGTTTTTATTATTGCTGCAGGTAAATAAAAATAGTGGCAAAAGAATGTAGCAATAAGAGGGGGGGGGGGGGGACTAGTTTATAAGTGCTGTTTTTCTCACCTTTA (double strand) [p28 II footprint fragment]” here?
A: binds

B1: Tr1 protected region IV (upstream of p28) (dsDNA)
DNA 1: TAATCACTTTACTATAGTAACACTAAGTGTATGCCACTTTGGAGTGGAAC
DNA 2: GTTCCACTCCAAAGTGGCATACACTTAGTGTTACTATAGTAAAGTGATTA
Q: With B1 as the molecule, how does the Kd (rTr1 [4]; label: biotin for SPR (note on S35), blunt) read?
A: 14 nM

B2: Tr1 protected region I (p28 promoter) (dsDNA)
DNA 1: TACACATGATACTATACTTAACCAGTTTTTTTGCTATTACTTACCTGACG
DNA 2: CGTCAGGTAAGTAATAGCAAAAAAACTGGTTAAGTATAGTATCATGT
Q: B2 was tested. Which Kd (rTr1 [4]; none in plain EMSA, 5' overhang 3 nt on strand 1 (reverse oligo as printed is 47 nt)) did it give?
A: 2.52 nM

Q: Does B2 bind (rEcxR; 5' overhang 3 nt on strand 1 (reverse oligo as printed is 47 nt))?
A: no binding

B3: Tr1 protected region I, mutated motif (dsDNA)
DNA 1: TACACATGATGGGGGGCTTAACCAGTTTTTTTGCTATTACTTACCTGACG
DNA 2: CGTCAGGTAAGTAATAGCAAAAAAACTGGTTAAGCCCCCCATCATGTGTA
Q: Does B3 bind (rTr1 [5])?
A: no binding

B4: Tr1 protected region III (tr1 promoter) (dsDNA)
DNA 1: TAAAGCATAATATGTTATTTCTGTATATTATATAAT
DNA 2: ATTATATAATATACAGAAATAACATATTATGCTTTA
Q: Does B4 bind (rTr1 [6])?
A: binds

B5: Tr1 protected region II (omp-1B promoter) (dsDNA)
DNA 1: AGTAAAGTTAACTATAGATTTTATTAAAATTTTTATTCTAATCACTTTAA
DNA 2: TTAAAGTGATTAGAATAAAAATTTTAATAAAATCTATAGTTAACTTTACT
Q: How did the Kd (rTr1 [4]; none in plain EMSA, blunt) turn out when B5 was run?
A: 15.5 nM

Q: Does B5 bind (rEcxR; blunt)?
A: no binding

B6: Tr1 protected region II, mutated motif (dsDNA)
DNA 1: AGTAAAGTTAGGGGGGGATTTTATTAAAATTTTTATTCTAATCACTTTAA
DNA 2: TTAAAGTGATTAGAATAAAAATTTTAATAAAATCCCCCCCTAACTTTACT
Q: Does B6 bind (rTr1 [7])?
A: no binding

— paper PMC7971322, “Insights into the mechanism regulating the differential expression of the P28-OMP outer membrane proteins in obligatory intracellular pathogen Ehrlichia chaffeensis”
